We go through three molecules from patent publication US20160208018A1 (JUNO THERAPEUTICS, published 2016).

As usually defined, the IC50 is the concentration that gives 50% inhibition. Low values mean greater potency, high ones weaker potency. For orientation: EC50 means the concentration at which the effect is half-maximal. A higher EC50 goes with a need for much substance.

Experiment [1] deals with T1, Human ROR1 (receptor tyrosine kinase-like orphan receptor 1) (human, UniProt Q01973 30-937).
T1 construct: also called hROR1; K562/ROR1
Nature of the experiment: flow cytometry competition, competitor R12 scFv on ROR1-expressing cells, mean (n = 3). As to the method: (§1) Assays also were performed to assess competition of the clones with the reference antibody (R12 scFv), for binding to ROR1-expressing cells. VH clones were titrated against 2 nM Myc-R12 on ROR1/K562 cells and competition assessed with an anti-Myc-Alexa647 secondary antibody, and the half maximal inhibitory concentration (IC₅₀) determined for respective clones.
(§2) Assays also were performed to assess competition (measured as half maximal inhibitory concentration (IC₅₀)) of the clones with the R12 scFv reference antibody for binding to ROR1-expressing cells, as described in Example 1. Percent (%) max ROR1 and % max competition, as compared to the R12 scFv reference antibody, were determined as described in Example 1.
Background: A flow cytometer gives signals particle by particle.

Experiment [2] deals with T1, Human ROR1 (receptor tyrosine …). The experiment is described as follows: competition with R12 scFv on ROR1-expressing cells; predicted plateau relative to R12 scFv = 100%. The procedure:
(§3) Additionally, percent (%) maximum (max) binding to ROR1-expressing cells and % max competition with the reference antibody (R12 scFv) were calculated. Percent max binding and competition values were calculated based on predicted plateaus (measured by Prism® using four parameter non-linear regression), relative to values for R12 scFv binding and inhibition, respectively, assigned as 100% in each study.
as §2

The target is the same in experiment [3]. Nature of the experiment: flow cytometry on ROR1-expressing cells; predicted plateau relative to R12 scFv = 100%. The procedure: as §3, §2
Experiment [4] has the same target. The experiment is described as follows: flow cytometry on ROR1-expressing K562 and CHOK1 cells, mean (n = 2).
Experiment [5] has the same target. Nature of the experiment: flow cytometry self-competition, competitor 2 nM Myc-R12 scFv on ROR1/K562 cells, mean (n = 17). The procedure: as §1
For experiment [6] the target is unchanged. The experiment is described as follows: flow cytometry self-competition, competitor R12 scFv on ROR1-expressing cells, mean (n = 17). The procedure: as §1, §2
Experiment [7] has the same target. Nature of the experiment: flow cytometry on ROR1-expressing K562 and CHOK1 cells, mean (n = 20).
The target is the same in experiment [8]. The experiment is described as above. This is another data set of the same source.
The target of experiment [9] is T2, Mouse ROR1 (mouse, UniProt Q9Z139 30-937).
T2 construct: also called mROR1; K562/mouse ROR1
Nature of the experiment: inferred from IFN-gamma release of CAR-expressing CD8+ T cells co-cultured with K562/mouse ROR1 cells. As to the method: Cytokine release was assessed following incubation of the CAR-expressing cells with either K562/human ROR1 (hROR1) or K562/mouse ROR1 (mROR1) antigen-expressing cells. Transduced CD8+ T cells were co-cultured with antigen-expressing cells at a single effector to target (E:T). The co-cultured cells were incubated for about 24 hours, and then supernatants were collected for measurement of IFN-γ using a cytokine immunoassay.

T1 sequence (Q01973 30-937): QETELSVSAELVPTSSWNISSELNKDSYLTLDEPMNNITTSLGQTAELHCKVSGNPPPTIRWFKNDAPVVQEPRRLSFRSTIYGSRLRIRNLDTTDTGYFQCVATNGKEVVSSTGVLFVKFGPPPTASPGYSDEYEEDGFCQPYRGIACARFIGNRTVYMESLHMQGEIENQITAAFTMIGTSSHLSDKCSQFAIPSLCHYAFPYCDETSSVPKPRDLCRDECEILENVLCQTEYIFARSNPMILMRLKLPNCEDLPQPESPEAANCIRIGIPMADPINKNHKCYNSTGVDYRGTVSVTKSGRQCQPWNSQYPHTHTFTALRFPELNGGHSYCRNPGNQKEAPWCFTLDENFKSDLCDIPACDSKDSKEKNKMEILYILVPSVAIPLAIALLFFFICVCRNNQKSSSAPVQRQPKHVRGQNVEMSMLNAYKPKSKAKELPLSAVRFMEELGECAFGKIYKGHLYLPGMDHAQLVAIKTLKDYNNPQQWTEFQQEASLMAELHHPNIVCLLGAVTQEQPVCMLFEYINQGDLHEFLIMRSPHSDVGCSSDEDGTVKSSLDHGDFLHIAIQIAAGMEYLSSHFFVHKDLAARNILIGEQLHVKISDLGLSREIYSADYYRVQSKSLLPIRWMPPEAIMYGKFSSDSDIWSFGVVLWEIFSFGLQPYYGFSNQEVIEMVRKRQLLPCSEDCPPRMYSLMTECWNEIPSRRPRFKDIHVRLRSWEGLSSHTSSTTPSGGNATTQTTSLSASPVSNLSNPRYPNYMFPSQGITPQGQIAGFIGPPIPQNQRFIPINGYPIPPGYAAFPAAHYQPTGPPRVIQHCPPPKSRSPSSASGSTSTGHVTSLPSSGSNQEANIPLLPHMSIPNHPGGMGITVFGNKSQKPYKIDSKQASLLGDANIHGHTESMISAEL
T2 sequence (Q9Z139 30-937): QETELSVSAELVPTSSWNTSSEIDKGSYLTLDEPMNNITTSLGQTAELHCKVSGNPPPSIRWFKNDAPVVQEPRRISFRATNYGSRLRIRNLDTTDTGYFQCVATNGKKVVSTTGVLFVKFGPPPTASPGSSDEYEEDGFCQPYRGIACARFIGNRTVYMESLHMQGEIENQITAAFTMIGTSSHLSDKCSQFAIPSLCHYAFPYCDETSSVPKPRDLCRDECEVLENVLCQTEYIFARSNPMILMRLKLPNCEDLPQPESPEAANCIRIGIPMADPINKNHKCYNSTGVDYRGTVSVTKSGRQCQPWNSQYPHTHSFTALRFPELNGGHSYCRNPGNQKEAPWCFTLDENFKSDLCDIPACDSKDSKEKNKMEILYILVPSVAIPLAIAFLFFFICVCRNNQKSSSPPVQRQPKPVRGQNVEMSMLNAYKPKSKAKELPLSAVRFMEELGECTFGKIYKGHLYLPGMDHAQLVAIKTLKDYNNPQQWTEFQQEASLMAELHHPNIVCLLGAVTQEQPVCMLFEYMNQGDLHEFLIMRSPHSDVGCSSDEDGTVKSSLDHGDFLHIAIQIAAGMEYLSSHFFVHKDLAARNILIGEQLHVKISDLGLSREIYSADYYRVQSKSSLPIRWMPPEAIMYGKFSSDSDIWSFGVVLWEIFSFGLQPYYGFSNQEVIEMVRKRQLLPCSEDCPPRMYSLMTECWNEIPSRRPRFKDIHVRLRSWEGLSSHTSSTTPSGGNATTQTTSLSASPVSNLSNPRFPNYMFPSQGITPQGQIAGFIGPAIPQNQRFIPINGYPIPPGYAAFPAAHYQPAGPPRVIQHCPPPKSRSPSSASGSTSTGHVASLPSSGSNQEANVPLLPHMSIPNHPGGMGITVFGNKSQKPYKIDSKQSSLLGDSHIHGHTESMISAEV

B1: Clone 83 scFv (scFv)
scFv: QVQLVQSGAEVKKPGASVKVSCKASGYTFTSYYMHWVRQAPGQGLEWMGIINPSGGSTSYAQKFQGRVTMTRDTSTSTVYMELSSLRSEDTAVYYCARDSSYDAFDIWGQGTMVTVSSGGGGSGGGGSGGGGSAIQLTQSPSTLSASVGDRVTITCQASQDISNYLNWYQQKPGKAPKLLINDASYLETGVPSRFSGSGSGTDFTLTISSLQPEDIATYYCQQYESLPYTFGQGTKLEIK
As for B1, the IC50 in [1] came to 11.1 nM. Moreover, the “% Max Competition” value in experiment [2] was 103%. Moreover, the “% Max Binding” value in [3] was 70%. The same molecule displayed an EC50 in experiment [4] of 2.5 nM.

B2: R12 scFv reference antibody (scFv)
scFv: QEQLVESGGRLVTPGGSLTLSCKASGFDFSAYYMSWVRQAPGKGLEWIATIYPSSGKTYYATWVNGRFTISSDNAQNTVDLQMNSLTAADRATYFCARDSYADDGALFNIWGPGTLVTISSGGGGSGGGGSGGGGSELVLTQSPSVSAALGSPAKITCTLSSAHKTDTIDWYQQLQGEAPRYLMQVQSDGSYTKRPGVPDRFSGSSSGADRYLIIPSVQADDEADYYCGADYIGGYVFGGGTQLTVTG
notes: also called Myc-R12; rabbit anti-ROR1 antibody
Take B2: the IC50 in experiment [5] and in experiment [6] was 3.3 nM each time. Besides, the EC50 in experiment [7] and in experiment [8] was 0.8 nM throughout.

B3: CAR containing the rabbit anti-ROR1 (R12) scFv (VH-VL) (other)
chain: B2 scFv
notes: Control chimeric antigen receptor expressed on primary human CD8+ T cells; tEGFR marker is split off by T2A; also called R12 scFv CAR; not shown: Ig-derived hinge only spacer, human CD28-derived transmembrane domain, human 4-1BB-derived intracellular signaling domai
With B3, in experiment [9], the binding result was “no binding”.
